A word on the IC50: it is the midpoint of a concentration-inhibition curve. A low value points to inhibition by little substance. The term koff denotes a measure of how fast the partners let go of each other. What is called % inhibition is the change of the read-out against control, counted positive when it falls. For orientation: EC50 means the midpoint of the concentration-response curve. Low readings indicate a more potent agent, high ones a less potent agent. For orientation: Kd means the constant that tells how readily two partners part at equilibrium. High values mean lower affinity, low ones higher affinity. The kon is a measure of how fast the partners come together. Higher therefore signals fast association.

The values that follow come from patent US20130136748A1 (Ablynx, published 2013).

Where “and” joins values, the source holds several entries; their conditions need not be identical. Identical values can stand only once.

Assay [1] has as its target T1, human HER3-Fc (R&D Systems, 348-RB) (human, UniProt P21860 20-643).
T1 construct: Bought; also called hHER3-Fc; Fc-HER3; Fc part of the bought chimera not given, not described
Briefly: HRG blocking alphascreen. A general note: In Alpha technology, singlet oxygen from a donor bead excites a nearby acceptor bead.

In assay [2] the target is T1, human HER3-Fc (R&D Systems, 348-RB). The assay can be described thus: HRG competition alphascreen.
Assay [3] shares this target. Briefly: alphascreen, competitor biotinylated 18G11.
The target is the same in assay [4]. The assay can be described thus: 18G11 competition alphascreen.
Assay [5] concerns the target T2, hHER3 full length (human, UniProt P21860 20-1342). The assay can be described thus: cell-based or functional assay.
Assay [6] addresses T3, hHER3 ECD (human HER3 extracellular domain) (human, UniProt P21860 20-643).
T3 construct: also called recombinant HER3-ECD
The assay can be described thus: SPR off rate.

Assay [7] addresses T4, human HER1 (human, UniProt P00533 25-1210).
T4 construct: also called EGFR; ErbB1
The assay can be described thus: FACS, CHO-HER1. In general terms: In flow cytometry, cells or beads pass a laser one at a time.

For assay [8], the target named is T5, human HER4 (human, UniProt Q15303 26-1308). The assay can be described thus: FACS, CHO-HER4.
For assay [9], the target named is T1, human HER3-Fc (R&D Systems, 348-RB). Briefly: HRG competition alphascreen. This is another data set of the same source.
Assay [10] has as its target T2, hHER3 full length. The assay can be described thus: cell-based or functional assay. This is another data set of the same source.
For assay [11], the target named is T4, human HER1. The assay can be described thus: FACS CHO-HER1, 222 nM.
In assay [12] the target is T2, hHER3 full length. The assay can be described thus: FACS, 400 nM, competitor 17C08-biotin.
For assay [13], the target named is T6, human HER2 (human, UniProt P04626 23-1255).
T6 construct: also called hHER2
The assay can be described thus: FACS CHO-HER2, 2000 nM.

Assay [14] deals with T2, hHER3 full length. Briefly: FACS, 400 nM, competitor 04C07-biotin.
Assay [15] deals with T6, human HER2. The assay can be described thus: FACS, CHO-HER2.
Assay [16] concerns the target T2, hHER3 full length. Briefly: FACS competition with HRG1-β1-EGF, CHO-HER3.
For assay [17], the target named is T2, hHER3 full length. Briefly: FACS, 400 nM, competitor 04F10-biotin.
The target of assay [18] is T5, human HER4. The assay can be described thus: FACS CHO-HER4, 667 nM.
Assay [19] concerns the target T7, Chicken Her3 (AA1-25 human, AA26-642 chicken) (chicken (human signal sequence)).
T7 construct: Transmembrane and extracellular regions only, on transiently transfected HEK293 cells; also called full length extracellular chicken HER3
T7 chain: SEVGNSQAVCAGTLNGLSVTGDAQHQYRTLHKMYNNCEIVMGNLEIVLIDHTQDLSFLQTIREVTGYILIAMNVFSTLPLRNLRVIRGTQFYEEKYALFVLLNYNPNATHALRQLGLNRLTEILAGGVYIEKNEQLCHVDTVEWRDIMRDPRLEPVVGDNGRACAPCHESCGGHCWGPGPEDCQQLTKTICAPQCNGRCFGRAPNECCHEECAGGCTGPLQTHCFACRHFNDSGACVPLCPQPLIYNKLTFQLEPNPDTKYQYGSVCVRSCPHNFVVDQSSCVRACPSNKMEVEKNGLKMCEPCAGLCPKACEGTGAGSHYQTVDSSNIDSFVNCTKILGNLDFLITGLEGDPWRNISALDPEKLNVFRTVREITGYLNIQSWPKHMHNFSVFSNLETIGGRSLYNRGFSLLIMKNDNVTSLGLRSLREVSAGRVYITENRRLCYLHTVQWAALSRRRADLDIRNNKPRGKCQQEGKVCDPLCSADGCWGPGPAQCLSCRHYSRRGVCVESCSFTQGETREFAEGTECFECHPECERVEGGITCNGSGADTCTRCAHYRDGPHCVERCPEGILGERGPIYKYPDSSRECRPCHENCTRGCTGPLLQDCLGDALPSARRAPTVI
Briefly: FACS, HEK293 with chicken HER3.

The target of assay [20] is T1, human HER3-Fc (R&D Systems, 348-RB). Briefly: HRG competition alphascreen. The source holds these as a separate data set.
Assay [21] concerns the target T5, human HER4. The assay can be described thus: FACS CHO-HER4, 2000 nM.
Assay [22] deals with T2, hHER3 full length. Briefly: cell-based or functional assay. This is another data set of the same source.
Assay [23] addresses T8, cHER3ECD (Maccaca fascicularis HER3 extracellular domain) (Macaca fascicularis, UniProt P21860 20-643 (human entry)).
T8 construct: also called cyno HER3ECD; cyno HER3-ECD
T8 chain: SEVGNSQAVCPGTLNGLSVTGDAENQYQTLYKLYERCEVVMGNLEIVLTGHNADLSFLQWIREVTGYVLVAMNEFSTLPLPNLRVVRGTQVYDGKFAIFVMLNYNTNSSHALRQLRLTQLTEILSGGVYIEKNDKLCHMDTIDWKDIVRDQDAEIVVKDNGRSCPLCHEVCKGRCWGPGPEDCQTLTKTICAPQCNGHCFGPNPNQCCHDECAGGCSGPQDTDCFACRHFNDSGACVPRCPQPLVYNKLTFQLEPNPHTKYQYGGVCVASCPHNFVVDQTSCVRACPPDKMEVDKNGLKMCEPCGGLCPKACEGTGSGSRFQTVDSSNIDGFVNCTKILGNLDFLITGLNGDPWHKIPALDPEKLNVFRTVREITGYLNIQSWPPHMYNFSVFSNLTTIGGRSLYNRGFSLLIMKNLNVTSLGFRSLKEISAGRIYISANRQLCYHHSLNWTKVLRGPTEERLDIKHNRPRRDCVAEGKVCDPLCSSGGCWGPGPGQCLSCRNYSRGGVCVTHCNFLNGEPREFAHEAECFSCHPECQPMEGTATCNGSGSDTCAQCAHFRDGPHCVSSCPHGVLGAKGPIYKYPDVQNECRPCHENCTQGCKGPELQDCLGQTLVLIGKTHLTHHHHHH
Briefly: ELISA, coated cHER3-ECD. Background: ELISA stands for enzyme-linked immunosorbent assay.

The target in assay [24] is T2, hHER3 full length. The assay can be described thus: FACS, 400 nM, competitor 21B02-biotin.
In assay [25] the target is T2, hHER3 full length. Briefly: FACS, 400 nM, competitor 23F05-biotin.
In assay [26] the target is T5, human HER4. The assay can be described thus: FACS CHO-HER4, 222 nM.
For assay [27], the target named is T6, human HER2. Briefly: FACS CHO-HER2, 667 nM.
The target in assay [28] is T1, human HER3-Fc (R&D Systems, 348-RB). The assay can be described thus: SPR, HER3-Fc captured by anti-Fc.
Assay [29] concerns the target T3, hHER3 ECD (human HER3 extracellular …). Briefly: ELISA, coated hHER3-ECD.
Assay [30] addresses T6, human HER2. The assay can be described thus: FACS CHO-HER2, 222 nM.
The target of assay [31] is T4, human HER1. The assay can be described thus: FACS CHO-HER1, 2000 nM.
For assay [32], the target named is T2, hHER3 full length. Briefly: cell-based or functional assay. This is another data set of the same source.
The target of assay [33] is T4, human HER1. Briefly: FACS CHO-HER1, 667 nM.

T5 sequence (Q15303 26-1308 limits assumed): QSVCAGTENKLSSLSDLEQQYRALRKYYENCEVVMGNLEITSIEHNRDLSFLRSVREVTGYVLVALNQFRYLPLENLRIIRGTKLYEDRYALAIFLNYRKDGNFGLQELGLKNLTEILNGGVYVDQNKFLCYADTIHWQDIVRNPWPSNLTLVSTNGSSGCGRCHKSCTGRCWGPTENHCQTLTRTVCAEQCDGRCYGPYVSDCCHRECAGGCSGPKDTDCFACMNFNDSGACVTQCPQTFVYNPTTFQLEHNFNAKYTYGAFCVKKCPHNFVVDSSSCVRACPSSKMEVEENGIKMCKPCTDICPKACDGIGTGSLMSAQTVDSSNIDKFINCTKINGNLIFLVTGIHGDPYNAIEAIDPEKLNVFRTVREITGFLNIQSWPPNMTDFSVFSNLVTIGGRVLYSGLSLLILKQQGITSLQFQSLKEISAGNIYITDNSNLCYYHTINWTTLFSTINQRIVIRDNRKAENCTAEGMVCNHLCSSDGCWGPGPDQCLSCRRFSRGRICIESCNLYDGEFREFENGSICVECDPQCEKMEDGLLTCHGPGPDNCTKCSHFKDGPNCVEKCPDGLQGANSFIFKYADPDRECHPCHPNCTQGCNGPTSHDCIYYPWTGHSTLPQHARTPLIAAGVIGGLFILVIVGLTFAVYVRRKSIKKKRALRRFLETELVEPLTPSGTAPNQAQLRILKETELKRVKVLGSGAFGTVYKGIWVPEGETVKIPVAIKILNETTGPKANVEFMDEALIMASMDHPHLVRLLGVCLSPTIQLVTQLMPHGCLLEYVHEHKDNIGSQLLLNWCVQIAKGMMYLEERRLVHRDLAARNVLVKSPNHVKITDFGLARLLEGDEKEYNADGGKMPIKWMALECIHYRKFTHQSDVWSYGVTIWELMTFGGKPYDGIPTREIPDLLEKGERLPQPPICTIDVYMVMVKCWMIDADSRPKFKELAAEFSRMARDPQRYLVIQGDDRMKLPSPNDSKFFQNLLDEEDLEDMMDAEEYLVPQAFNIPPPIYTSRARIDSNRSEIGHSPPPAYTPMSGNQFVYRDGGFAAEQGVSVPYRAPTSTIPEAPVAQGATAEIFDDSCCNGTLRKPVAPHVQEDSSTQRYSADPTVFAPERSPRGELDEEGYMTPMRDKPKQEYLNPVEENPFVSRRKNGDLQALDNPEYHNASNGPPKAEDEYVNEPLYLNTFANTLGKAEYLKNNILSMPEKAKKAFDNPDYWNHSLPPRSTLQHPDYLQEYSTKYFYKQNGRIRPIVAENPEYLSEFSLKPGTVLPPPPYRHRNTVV

B1: HER3MS00045 (VHH)
VHH: EVQLVESGGGLVQPGGSLRLSCAASGFTFSSYPMSWVRQAPGKGPEWVSTVSPGGITTSYADSVKGRFTISRDNSKNTLYLQMNSLRPEDTAVYYCARDLNNRGQGTLVTVSS
notes: 04C07 basic + A46E + L93A; also called HER3MS0045
For B1, the “fold lower potency than parental 04C07” value in assay [1] amounted to 18 fold. In [2], this molecule registered an IC50 of 4910 pM.

B2: HER3MS0050 (VHH)
VHH: EVQLVESGGGLVQPGGSLRLSCAASGTLFKINAMGWYRQAPGKRRELVALITSSDTTDYAESVEGRFTISRDNTWNAVYLQMNSLRPEDTAVYYCHSDHYSMGVPEKRVIMYGQGTLVTVSS
notes: Kabat numbering; also called 18G11 basic variant
In assay [3], B2 had an IC50 of 3200 pM. This lies in the single-digit nanomolar range.

B3: HER3MS00211 (VHH)
VHH: EVQLVESGGGLVQPGGSLRLSCAASGTLFKINAMGWYRQAPGKRRELVALITSSDTTDYADSVKGRFTISRDNSWNTVYLQMNSLRPEDTAVYYCHSDHYSLGVPEKRVILYGQGTLVTVSS
notes: 18G11 second round variant without R44Q (selected)
Turning to B3, the IC50 in assay [4] turned out to be 5400 pM. The “IC50 pHER3 blocking, HRG stimulated MCF7” value with hHER3 full length [5] is 1.79e-08 M and 2e-08 M. This molecule yielded a koff in assay [6] of 0.00072 s⁻¹.

B4: 21F06 (VHH)
VHH: EVQLVESGGGLVQAGGSLRLSCAASGRTYYLNAMGWFRQGPGKDREFVAAIDWSDGNKDYADSVKGRFTISRDNAKNTVYLQMNSLKPEDTAVYYCAADTPPWGPMIYIESYDSWGQGTQVTVSS
notes: c-myc, His6-tagged form as expressed; also called 21F6; HER3MS21F06
Turning to B4, the binding result is “no binding (tested: 2000 nM)” in the assay with human HER1 [7], “no binding (tested: 2000 nM)” with human HER4 [8], “no binding (tested: 2000 nM)” with human HER2 [15] and “binds” in assay [19]. Moreover, the “% inhibition” value in assay [9] turned out to be 104%. Moreover, the IC50 is 13.5 pM in assay [9], 10100 pM with hHER3 full length [16] and 250 pM in assay [20]. In the assay with hHER3 full length [10], the “IC50 pHER3, HRG1-β1 stimulated MCF7” value came out at 8.74e-09 M. Moreover, the MCF in the assay with human HER1 [11] stood at 107; in the assay with human HER2 [13], 409; in the assay with human HER4 [18], 225; with human HER4 [21] it was 263; with human HER4 [26] it was 149; with human HER2 [27], 229. The MCF with human HER2 [30] turned out to be 84; with human HER1 [31], 74; with human HER1 [33], 110. In addition, the “% competition” value in the assay with hHER3 full length [12] amounted to 9%; with hHER3 full length [14] it was 11%; with hHER3 full length [17], 15%; in the assay with hHER3 full length [24] it was 100%; with hHER3 full length [25], 100%. For the same molecule, the “IC50, HRG1-β1 induced pHER3, MCF-7” value with hHER3 full length [22] came to 6.79e-09 M. For the same molecule, in the assay with hHER3 full length [22], the “IC50, HRG1-β1 induced pHER3, MDA-MB468” value stood at 7.94e-09 M. Moreover, the EC50 is 320 pM in [23] and 300 pM in assay [29]. The same molecule came in with a Kd in [28] of 120 pM. Further, in assay [28], the kon is 1.8e+07 M⁻¹ s⁻¹. In the assay with hHER3 full length [32], the “IC50, HRG1-β1 induced pAkt, MCF-7” value turned out to be 2.31e-08 M. Moreover, in the assay with hHER3 full length [32], the “IC50, HRG1-β1 induced pERK1/2, MCF-7” value is 1.11e-07 M.
